Here are results for one substance from PMC5549892.

This experiment concerns the target BG505 SOSIP.664 gp140 envelope glycoprotein trimer (HIV-1 (BG505)). The experiment is described as follows: native gel or EMSA. On the technique in general: A gel shift assay detects complexes by their altered migration in electrophoresis.

A word on the stoichiometry N: it is a count of units in the complex or per binding partner. “BG505 SOSIP.664 gp140 envelope glycoprotein trimer (complex)” returned a stoichiometry N of 3.
